Target: Thermotoga maritima SecYEG complex, Se-Met derivatized (Thermotoga maritima) (UniProt Q9X1I9)
Experiment: crystal structure

Thermotoga maritima SecYEG complex, Se-Met derivatized (Thermotoga maritima), sequence (Q9X1I9 whole entry, chain 1 of 3): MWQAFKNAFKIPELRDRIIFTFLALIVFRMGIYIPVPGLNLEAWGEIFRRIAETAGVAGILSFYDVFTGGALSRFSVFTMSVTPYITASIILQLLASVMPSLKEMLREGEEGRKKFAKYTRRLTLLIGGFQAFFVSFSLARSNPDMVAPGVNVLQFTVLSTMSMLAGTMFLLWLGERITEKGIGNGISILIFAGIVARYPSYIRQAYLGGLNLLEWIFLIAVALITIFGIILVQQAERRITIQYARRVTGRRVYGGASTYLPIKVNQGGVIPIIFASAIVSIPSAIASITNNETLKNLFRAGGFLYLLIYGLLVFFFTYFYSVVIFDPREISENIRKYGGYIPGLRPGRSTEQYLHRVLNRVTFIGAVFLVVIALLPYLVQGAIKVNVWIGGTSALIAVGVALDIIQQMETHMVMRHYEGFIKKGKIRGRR
Thermotoga maritima SecYEG complex, Se-Met derivatized (Thermotoga maritima), sequence (P35874 whole entry, chain 2 of 3, further chain): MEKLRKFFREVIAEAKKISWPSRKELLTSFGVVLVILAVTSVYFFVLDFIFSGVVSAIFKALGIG
Thermotoga maritima SecYEG complex, Se-Met derivatized (Thermotoga maritima), sequence (Q9WYU9 whole entry, chain 3 of 3, further chain): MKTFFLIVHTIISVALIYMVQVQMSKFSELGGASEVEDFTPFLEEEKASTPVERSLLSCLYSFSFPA

In the case of “Thermotoga maritima SecA (from UniProt Q9X1R4 1-871) (enzyme)”, the stoichiometry N (SecA per SecY complex) is reported as 1.

— PMC7164768
